2 substances from PMC6233088 can be followed below.

The target of experiment [1] is RGA5_S (RGA5 982-1116), small C-terminal fragment of RGA5 carrying the HMA domain (rice) (UniProt F7J0N2). Briefly: crystal structure.
Experiment [2] addresses minimal RGA5HMA construct (RGA5 991-1072) (rice) (UniProt F7J0N2). Briefly: ITC. A general note: ITC needs no label: the signal is the heat of the interaction.
The target in experiment [3] is RGA5_S (RGA5 982-1116), small C-terminal fragment of RGA5 carrying the HMA domain (rice) (UniProt F7J0N2). Briefly: ITC.

As for “dSP-AVR1-CO39 (AVR1-CO39 with its signal peptide deleted), wild type, recombinant (natural protein)”, the stoichiometry N (as a rule, the number of molecules, sites or subunits per partner or assembly) in experiment [1] came out at 1. Besides, the dissociation constant (Kd) (usually the equilibrium constant for the complex coming apart) in experiment [2] was 7.2 µM.

With “dSP-AVR-Pia (AVR-Pia with its signal peptide deleted), recombinant (natural protein)”, the Kd in experiment [3] was 1.8 µM.
